Measurements taken from IntAct's records for PubMed 24332715.

B1: Internalin C (Listeria monocytogenes serotype 1/2a), P71451 (parent)
chain: MLKKNNWLQNAVIAMLVLIVGLCINMGSGTKVQAESIQRPTPINQVFPDPGLANAVKQNLGKQSVTDLVSQKELSGVQNFNGDNSNIQSLAGMQFFTNLKELHLSHNQISDLSPLKDLTKLEELSVNRNRLKNLNGIPSACLSRLFLDNNELRDTDSLIHLKNLEILSIRNNKLKSIVMLGFLSKLEVLDLHGNEITNTGGLTRLKKVNWIDLTGQKCVNEPVKYQPELYITNTVKDPDGRWISPYYISNGGSYVDGCVLWELPVYTDEVSYKFSEYINVGETEAIFDGTVTQPIKN
B2: Dynamin-binding protein (Homo sapiens), Q6XZF7-1 (parent)
chain: MEAGSVVRAIFDFCPSVSEELPLFVGDIIEVLAVVDEFWLLGKKEDVTGQFPSSFVEIVTIPSLKEGERLFVCICEFTSQELDNLPLHRGDLVILDGIPTAGWLQGRSCWGARGFFPSSCVRELCLSSQSRQWHSQSALFQIPEYSMGQARALMGLSAQLDEELDFREGDVITIIGVPEPGWFEGELEGRRGIFPEGFVELLGPLRTVDESVSSGNQDDCIVNGEVDTPVGEEEIGPDEDEEEPGTYGVALYRFQALEPNELDFEVGDKIRILATLEDGWLEGSLKGRTGIFPYRFVKLCPDTRVEETMALPQEGSLARIPETSLDCLENTLGVEEQRHETSDHEAEEPDCIISEAPTSPLGHLTSEYDTDRNSYQDEDTAGGPPRSPGVEWEMPLATDSPTSDPTEVVNGISSQPQVPFHPNLQKSQYYSTVGGSHPHSEQYPDLLPLEARTRDYASLPPKRMYSQLKTLQKPVLPLYRGSSVSASRVVKPRQSSPQLHNLASYTKKHHTSSVYSISERLEMKPGPQAQGLVMEAATHSQGDGSTDLDSKLTQQLIEFEKSLAGPGTEPDKILRHFSIMDFNSEKDIVRGSSKLITEQELPERRKALRPPPPRPCTPVSTSPHLLVDQNLKPAPPLVVRPSRPAPLPPSAQQRTNAVSPKLLSRHRPTCETLEKEGPGHMGRSLDQTSPCPLVLVRIEEMERDLDMYSRAQEELNLMLEEKQDESSRAETLEDLKFCESNIESLNMELQQLREMTLLSSQSSSLVAPSGSVSAENPEQRMLEKRAKVIEELLQTERDYIRDLEMCIERIMVPMQQAQVPNIDFEGLFGNMQMVIKVSKQLLAALEISDAVGPVFLGHRDELEGTYKIYCQNHDEAIALLEIYEKDEKIQKHLQDSLADLKSLYNEWGCTNYINLGSFLIKPVQRVMRYPLLLMELLNSTPESHPDKVPLTNAVLAVKEINVNINEYKRRKDLVLKYRKGDEDSLMEKISKLNIHSIIKKSNRVSSHLKHLTGFAPQIKDEVFEETEKNFRMQERLIKSFIRDLSLYLQHIRESACVKVVAAVSMWDVCMERGHRDLEQFERVHRYISDQLFTNFKERTERLVISPLNQLLSMFTGPHKLVQKRFDKLLDFYNCTERAEKLKDKKTLEELQSARNNYEALNAQLLDELPKFHQYAQGLFTNCVHGYAEAHCDFVHQALEQLKPLLSLLKVAGREGNLIAIFHEEHSRVLQQLQVFTFFPESLPATKKPFERKTIDRQSARKPLLGLPSYMLQSEELRASLLARYPPEKLFQAERNFNAAQDLDVSLLEGDLVGVIKKKDPMGSQNRWLIDNGVTKGFVYSSFLKPYNPRRSHSDASVGSHSSTESEHGSSSPRFPRQNSGSTLTFNPSSMAVSFTSGSCQKQPQDASPPPKECDQGTLSASLNPSNSESSPSRCPSDPDSTSQPRSGDSADVARDVKQPTATPRSYRNFRHPEIVGYSVPGRNGQSQDLVKGCARTAQAPEDRSTEPDGSEAEGNQVYFAVYTFKARNPNELSVSANQKLKILEFKDVTGNTEWWLAEVNGKKGYVPSNYIRKTEYT

Variants of: B1
Conditions: with DNMBP
F146A was tested, and the “effect of a mutation on the interaction” value was “decreasing interaction strength”.

Variants of: B2
Conditions: with inlc_lismg inlC
With V1521R the “effect of a mutation on the interaction” value was “decreasing interaction strength”.
In the case of N1569R, the “effect of a mutation on the interaction” value is reported as “decreasing interaction strength”.
